Km data for 2 molecules are collected here from patent US4609626A, “Method for producing S-adenosyl-L-homocysteine hydrolase” (Nippon Zeon Co., Ltd., priority 1983, dated 1986).

The target in data set [1] is T1, S-adenosyl-L-homocysteine hydrolase (SAHase) from Alcaligenes faecalis (IFO 12669) (Alcaligenes faecalis, UniProt A0A2U2BLR9).
T1 sequence (A0A2U2BLR9 1-465): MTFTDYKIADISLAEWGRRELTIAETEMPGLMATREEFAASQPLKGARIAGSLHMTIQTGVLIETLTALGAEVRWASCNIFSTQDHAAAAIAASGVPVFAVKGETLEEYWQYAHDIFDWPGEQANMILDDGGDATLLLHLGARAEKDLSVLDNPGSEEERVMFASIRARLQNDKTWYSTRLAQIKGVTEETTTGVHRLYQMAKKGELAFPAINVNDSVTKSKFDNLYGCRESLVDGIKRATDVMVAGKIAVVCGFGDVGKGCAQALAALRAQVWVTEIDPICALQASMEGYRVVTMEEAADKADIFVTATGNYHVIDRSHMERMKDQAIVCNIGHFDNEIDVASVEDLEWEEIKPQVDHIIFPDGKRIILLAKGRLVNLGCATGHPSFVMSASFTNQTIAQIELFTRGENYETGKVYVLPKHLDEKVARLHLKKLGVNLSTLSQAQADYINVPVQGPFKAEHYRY
The conditions noted are these: read-out: Km for SAH; purified crystalline SAHase of Example 1.

Substrate in data set [2]: N[C@@H](CCS)C(=O)O
The data set can be described thus: purified protein, by the assay type. Conditions: other: purified crystalline SAHase of Example 1.

Substrate in data set [3]: Nc1ncnc2c1ncn2[C@@H]1O[C@H](CO)[C@@H](O)[C@H]1O
The data set can be described thus: purified protein, by the assay type. The conditions noted are these: other: purified crystalline SAHase of Example 1.

What is called Km is the substrate concentration at which the rate is half of its maximum. `Nc1ncnc2c1ncn2[C@@H]1O[C@H](CSCC[C@H](N)C(=O)O)[C@@H](O)[C@H]1O` [SAH, S-adenosyl-L-homocysteine]: the Km in data set [1] stood at 10 µM.

B1: S-adenosyl-L-homocysteine hydrolase (SAHase) from Alcaligenes faecalis (IFO 12669) (Alcaligenes faecalis) (protein)
chain: MTFTDYKIADISLAEWGRRELTIAETEMPGLMATREEFAASQPLKGARIAGSLHMTIQTGVLIETLTALGAEVRWASCNIFSTQDHAAAAIAASGVPVFAVKGETLEEYWQYAHDIFDWPGEQANMILDDGGDATLLLHLGARAEKDLSVLDNPGSEEERVMFASIRARLQNDKTWYSTRLAQIKGVTEETTTGVHRLYQMAKKGELAFPAINVNDSVTKSKFDNLYGCRESLVDGIKRATDVMVAGKIAVVCGFGDVGKGCAQALAALRAQVWVTEIDPICALQASMEGYRVVTMEEAADKADIFVTATGNYHVIDRSHMERMKDQAIVCNIGHFDNEIDVASVEDLEWEEIKPQVDHIIFPDGKRIILLAKGRLVNLGCATGHPSFVMSASFTNQTIAQIELFTRGENYETGKVYVLPKHLDEKVARLHLKKLGVNLSTLSQAQADYINVPVQGPFKAEHYRY
As for B1, the results for the Michaelis constant (Km) in data set [2] and in data set [3] were 0.93 mM and 37 µM, respectively.
